Test results published in patent US20160122430A1 (AbbVie / Abbott, published 2016).
Changes are numbered by the printed parent chain. Numbers in names are those of the source. Blank lines part the entries; values can stand above or below the binder they belong to.

Assays:
human CS1 ECD-huIgG1 = biological target: T1, human CS1 ECD-huIgG1 (human, UniProt Q9NQ25 23-226); assay: hybridoma screen of Example 1 (ELISA on ECD-huIgG1 fusions, flow cytometry on OPM-2 cells); member named in Table 5
T1 construct: Its preparation is not described; also called HuCS1Fc; HuCS1-Fc; not shown: constant region of human IgG1 (huIgG1 Fc)
Description: Specificity of antibodies secreted by hybridomas was determined by binding to human CS1 ECD-huIgG1 and CmCS1 ECD-huIgG1, and not to negative control CLL1 ECD-huIgG1 by ELISA. […] Hybridoma supernatants were allowed to bind to the proteins and detected with an HRP conjugated donkey anti mouse IgG (H+L) antibody. Hybridomas that recognized both human and cynomolgus but not CLL fusion proteins were further tested for binding to the huCS1 molecule on an endogenously expressing OPM-2 cells using standard flow cytometry protocols. Briefly, OPM-2 cells were incubated with hybridoma supernatants for 30 minutes on ice. After extensive washing, cells were incubated with phycoerythrin conjugated goat anti mouse IgG specific antibodies for 30 minutes on ice. Cells were washed again and analyzed on a Becton Dickinson FACSCalibur for the presence of cell surface bound antibodies.

human CS1 (HuCS1) [1] = biological target: T2, human CS1 (HuCS1) (human, UniProt Q9NQ25 23-335); assay: FACS, binding relative to Hu34C3; cells not given
T2 construct: also called FL-HuCS1; SLAMF7

human CS1 (HuCS1) [2] = biological target: T2, human CS1 (HuCS1); assay: flow cytometry on L-363 cells, PE goat anti-human Fc detection
Description: (§1) L-363 cells were incubated with different amounts of test antibody on ice for 30 min. Cells were washed three times with PBS+1% FBS. A PE-conjugated goat anti-human Fc antibody was added to the cells and incubated for 30 min on ice. Cells were washed three times with PBS+1% FBS, and binding was quantitated by flow cytometry.

human CS1 (HuCS1) [3] = biological target: T2, human CS1 (HuCS1); assay: flow cytometry on L-363 cells; GeoMean (max) relative to elotuzumab
Description: as §1

human CS1 (HuCS1) [4] = biological target: T2, human CS1 (HuCS1); assay: flow cytometry on L-363 cells; maximum fluorescent value at any tested concentration
Description: as §1

human CS1 (HuCS1) [5] = biological target: T2, human CS1 (HuCS1); assay: flow cytometry on 293s cells transfected with human CS1

B1: CS1.AD159.27A12 (antibody, V domains shown)
VH: EVKLVESEGGLVQPGSSMKLSCTASGFTFSDYYMAWVRQVPEKGLEWVAEINYDGSSTYYLDSLKSRFIISRDNAKNILYLQMSNLKSEDTATYYCARDRGFYFDYWGQGTTLTVSS
VL: DVVMTQTPLSLPVSLGDQASISCRSSQSLVHNNGNTYLHWYLQKPGQSPKLLIYKVSNRFSGVPDRFSGSGSGTDFTLKISRVEAEDLGVYFCSQSTHVPPYTFGGGTKLEIK
notes: Murine hybridoma antibody; also called Mu27A12
binding result (human CS1 ECD-huIgG1): binds

B2: Hu34C3 S55E (antibody, V domains shown)
VH: EVQLVESGGGLVQPGGSLRLSCAASGFTFSDYYMAWVRQAPGKGLEWVASINYDGESTYYVDSVKGRFTISRDNAKNSLYLQMNSLRAEDTAVYYCARDRGYYFDYWGQGTTVTVSS
VL: B1 VL with P12S, S14T, L15P, D17Q, Q18P, N32S, K50Q, L88V, Y102F, L110V
% Binding (human CS1 (HuCS1) [1]): 125%

B3: HuCS1.31D2.2 (antibody, V domains shown)
VH: B2 VH with S50D, E56G, V61L, V64L, G66S, T112L
VL: B1 VL with T7S, S14T, L15P, D17E, Q18P, N32S, K50Q, L88V, Y102F, L110V
notes: Humanized antibody; It has a human Fc (detected with anti-human Fc); also called Hu31D2
EC50 (human CS1 (HuCS1) [2]): 3.1 nM
% of Elotuzumab (human CS1 (HuCS1) [3]): 160%
GeoMean (max) (human CS1 (HuCS1) [4]): 28

B6: HuCS1.27A12 (antibody, V domains shown)
VH: B2 VH with S50E, E56S, Y102F
VL: B1 VL with P12S, S14T, L15P, D17Q, Q18P, K50Q, L88V, L110V
notes: Humanized antibody; It has a human Fc (detected with anti-human Fc); also called Hu27A12
EC50 (human CS1 (HuCS1) [2]): 4.7 nM
% of Elotuzumab (human CS1 (HuCS1) [3]): 142%
GeoMean (max) (human CS1 (HuCS1) [4]): 24.8

B8: Hu34C3 N30L (antibody, V domains shown)
VH: B2 VH with E56S
VL: DVVMTQTPLSLSVTPGQPASISCRSSQSLVHSNGLTYLHWYLQKPGQSPQLLIYKVSNRFSGVPDRFSGSGSGTDFTLKISRVEAEDVGVYFCSQSTHVPPFTFGGGTKVEIK
% Binding (human CS1 (HuCS1) [1]): 128%

B10: Hu34C3 S55E/N30L (antibody, V domains shown)
VH: B2 VH
VL: B8 VL
notes: Double mutant of Hu34C3
% Binding (human CS1 (HuCS1) [1]): 134%

The remaining lines, values ahead:

binding result (human CS1 ECD-huIgG1): binds
B4: CS1.AD159.31D2 (antibody, V domains shown)
VH: B1 VH with E50D, S56G, Y80C, N85S, F102Y
VL: B1 VL with N32S, Y102F
notes: Murine hybridoma antibody; also called Mu31D2

binding result (human CS1 ECD-huIgG1): binds
B5: CS1.AD159.34C3 (antibody, V domains shown)
VH: B1 VH with E50S, Y80F, S84N, N85S, F102Y
VL: B1 VL with N32S, Y102F
notes: Murine hybridoma antibody; also called Mu34C3

binding result (human CS1 ECD-huIgG1): binds
B7: CS1.AD159.12D10 (antibody, V domains shown)
VH: B1 VH with Y33F, E50S, S56N, Y60F, N85S
VL: B1 VL with S25F, N32R, P100R, K113R
notes: Murine hybridoma antibody; also called Mu12D10

binding result (human CS1 ECD-huIgG1): binds
B9: CS1.AD159.14C11 (antibody, V domains shown)
VH: B1 VH with E50S, N85G, Y95S
VL: B1 VL with N32R
notes: Murine hybridoma antibody; also called Mu14C11

concentration at which 80% of maximal binding occurred (human CS1 (HuCS1) [5]): 10 µg/mL
EC50 (human CS1 (HuCS1) [2]): 2.5 nM
% of Elotuzumab (human CS1 (HuCS1) [3]): 249%
GeoMean (max) (human CS1 (HuCS1) [4]): 43.5
B11: HuCS1.34C3 (antibody, human IgG1, kappa, V domains shown)
VH: B2 VH with E56S
VL: DVVMTQTPLSLSVTPGQPASISCRSSQSLVHSNGNTYLHWYLQKPGQSPQLLIYKVSNRFSGVPDRFSGSGSGTDFTLKISRVEAEDVGVYFCSQSTHVPPFTFGGGTKVEIKR
notes: Humanized IgG1; also called Hu34C3

EC50 (human CS1 (HuCS1) [2]): 35.9 nM
% of Elotuzumab (human CS1 (HuCS1) [3]): 100%
GeoMean (max) (human CS1 (HuCS1) [4]): 17.5
B12: elotuzumab (antibody, IgG1, V domains shown)
VH: EVQLVESGGGLVQPGGSLRLSCAASGFDFSRYWMSWVRQAPGKGLEWIGEINPDSSTINYAPSLKDKFIISRDNAKNSLYLQMNSLRAEDTAVYYCARPDGNYWYFDVWGQGTLVTVSS
VL: DIQMTQSPSSLSASVGDRVTITCKASQDVGIAVAWYQQKPGKVPKLLIYWASTRHTGVPDRFSGSGSGTDFTLTISSLQPEDVATYYCQQYSSYPYTFGQGTKVEIKR
notes: also called HuLuc63
